Blank lines part the entries; values can stand above or below the binder they belong to.
What was measured:
Peptide_045 [1] = target: T1, Peptide_045 (human); test: peptide microarray, head 0.08 ug (text 0.008 ug/mL)
T1 construct: 15-mer of hTrx1 on microarray
T1 peptide: SATWCGPCKMIKPFF
Procedure: (§1) 5, 1, 0.2, 0.04, 0.008 and 0.0016 μg/mL serial dilutions were incubated on a single multi-well microarray slide at 30° C. for 1 hour. The slide includes 21 individual mini-arrays (one mini-array per sample dilution).
(§2) DyLight 650 was used as a label. False-positive binding to a peptide was evaluated by performing one additional control incubation in which only a secondary antibody was applied on the same microarray slide. Before performing each step, the microarrays were washed with a washing buffer.

Peptide_095 [2] = target: T2, Peptide_095 (human); test: as above
T2 construct: 15-mer of hTrx1 on microarray
T2 peptide: QFFKKGQKVGEFSGA
Procedure: as §1, §2

Peptide_084 [3] = target: T3, Peptide_084 (human); test: as above
T3 construct: 15-mer of hTrx1 on microarray
T3 peptide: SECEVKCMPTFQFFK
Procedure: as §1, §2

Peptide_015 [4] = target: T4, Peptide_015 (human); test: as above
T4 construct: 15-mer on microarray; not native form, includes recombinant insert region
T4 peptide: HHHHVKQIESKTAFQ
Procedure: as §1, §2

Peptide_014 [5] = target: T5, Peptide_014 (human); test: as above
T5 construct: 15-mer on microarray; not native form, includes recombinant insert region
T5 peptide: HHHHHVKQIESKTAF
Procedure: as §1, §2

Peptide_021 [6] = target: T6, Peptide_021 (human); test: peptide microarray, 0.0016 ug/mL
T6 construct: 15-mer of hTrx1 on microarray
T6 peptide: QIESKTAFQEALDAA

Peptide_085 [7] = target: T7, Peptide_085 (human); test: peptide microarray, 0.0016 ug/mL
T7 construct: 15-mer of hTrx1 on microarray
T7 peptide: ECEVKCMPTFQFFKK

Peptide_020 [8] = target: T8, Peptide_020 (human); test: peptide microarray, 0.0016 ug/mL
T8 construct: 15-mer of hTrx1 on microarray
T8 peptide: KQIESKTAFQEALDA

Peptide_013 [9] = target: T9, Peptide_013 (human); test: peptide microarray, 0.0016 ug/mL
T9 construct: 15-mer on microarray; not native form, includes recombinant insert region
T9 peptide: HHHHHHVKQIESKTA

Peptide_086 [10] = target: T10, Peptide_086 (human); test: peptide microarray, 0.0016 ug/mL
T10 construct: 15-mer of hTrx1 on microarray
T10 peptide: CEVKCMPTFQFFKKG

Peptide_018 [11] = target: T11, Peptide_018 (human); test: peptide microarray
T11 construct: 15-mer on microarray; not native form, includes recombinant insert region; also called HVKQIESKTAFQEAL
T11 peptide: HVKQIESKTAFQEAL
Procedure: as §1, §2
(§3) MMC2 is the same as the average value of all three cases on a microarray except when the coefficient of variation (CV), which is the standard deviation divided by the average value, is larger than 0.5. In this case, the average of the two closest values (MC2) is assigned to MMC2. The thick black line in the heatmap indicates the culture of a control only using a secondary anti-mouse IgG antibody. The culture of individual antibody samples is indicated by a thin blue line. […] However, since Peptide_004 and Peptide_005 are not native forms, these peptides were excluded from an epitope candidate group.

Peptide_012 [12] = target: T12, Peptide_012 (human); test: peptide microarray
T12 construct: 15-mer on microarray; not native form, includes recombinant insert region
T12 peptide: HHHHHHHVKQIESKT
Procedure: as §1, §2, §3

Peptide_051 = target: T13, Peptide_051 (human); test: peptide microarray, 5 ug/mL
T13 construct: 15-mer of hTrx1 on microarray
T13 peptide: PCKMIKPFFHSLSEK
Procedure: as §1, §2

Peptide_021 [13] = target: T6, Peptide_021; test: peptide microarray, 5 ug/mL
Procedure: as §1, §2

Peptide_085 [14] = target: T7, Peptide_085; test: peptide microarray, 5 ug/mL
Procedure: as §1, §2

Peptide_018 [15] = target: T11, Peptide_018; test: peptide microarray, 5 ug/mL
Procedure: as §1, §2

Peptide_045 [16] = target: T1, Peptide_045; test: peptide microarray, 5 ug/mL
Procedure: as §1, §2

Peptide_094 = target: T14, Peptide_094 (human); test: peptide microarray, 5 ug/mL
T14 construct: 15-mer of hTrx1 on microarray
T14 peptide: FQFFKKGQKVGEFSG
Procedure: as §1, §2

Peptide_095 [17] = target: T2, Peptide_095; test: peptide microarray, 5 ug/mL
Procedure: as §1, §2

Peptide_022 = target: T15, Peptide_022 (human); test: peptide microarray, 5 ug/mL
T15 construct: 15-mer of hTrx1 on microarray
T15 peptide: IESKTAFQEALDAAG
Procedure: as §1, §2

Peptide_020 [18] = target: T8, Peptide_020; test: peptide microarray, 5 ug/mL
Procedure: as §1, §2

Peptide_013 [19] = target: T9, Peptide_013; test: peptide microarray, 5 ug/mL
Procedure: as §1, §2

Peptide_024 = target: T16, Peptide_024 (human); test: peptide microarray, 5 ug/mL
T16 construct: 15-mer of hTrx1 on microarray
T16 peptide: SKTAFQEALDAAGDK
Procedure: as §1, §2

Peptide_086 [20] = target: T10, Peptide_086; test: peptide microarray, 5 ug/mL
Procedure: as §1, §2

Peptide_019 = target: T17, Peptide_019 (human); test: peptide microarray, 5 ug/mL
T17 construct: 15-mer of hTrx1 on microarray
T17 peptide: VKQIESKTAFQEALD
Procedure: as §1, §2

Peptide_093 = target: T18, Peptide_093 (human); test: peptide microarray, 5 ug/mL
T18 construct: 15-mer of hTrx1 on microarray
T18 peptide: TFQFFKKGQKVGEFS
Procedure: as §1, §2

Peptide_084 [21] = target: T3, Peptide_084; test: peptide microarray, 5 ug/mL
Procedure: as §1, §2

Peptide_012 [22] = target: T12, Peptide_012; test: peptide microarray, 5 ug/mL
Procedure: as §1, §2

Peptide_092 = target: T19, Peptide_092 (human); test: peptide microarray, 5 ug/mL
T19 construct: 15-mer of hTrx1 on microarray
T19 peptide: PTFQFFKKGQKVGEF
Procedure: as §1, §2

Peptide_015 [23] = target: T4, Peptide_015; test: peptide microarray, 5 ug/mL
Procedure: as §1, §2

Peptide_014 [24] = target: T5, Peptide_014; test: peptide microarray, 5 ug/mL
Procedure: as §1, §2

Peptide_023 = target: T20, Peptide_023 (human); test: peptide microarray, 5 ug/mL
T20 construct: 15-mer of hTrx1 on microarray
T20 peptide: ESKTAFQEALDAAGD
Procedure: as §1, §2

Peptide_025 = target: T21, Peptide_025 (human); test: peptide microarray, 5 ug/mL
T21 construct: 15-mer of hTrx1 on microarray
T21 peptide: KTAFQEALDAAGDKL
Procedure: as §1, §2

Peptide_004 [25] = target: T22, Peptide_004 (human); test: peptide microarray, head 0.08 ug (text 0.008 ug/mL)
T22 construct: 15-mer on microarray; not native form, recombinant insert region
T22 peptide: AADVHSQHHHHHHHH
Procedure: as §1, §2

Peptide_004 [26] = target: T22, Peptide_004; test: peptide microarray
Procedure: as §1, §2, §3

Peptide_005 [27] = target: T23, Peptide_005 (human); test: peptide microarray
T23 construct: 15-mer on microarray; not native form, recombinant insert region
T23 peptide: ADVHSQHHHHHHHHV
Procedure: as §1, §2, §3

Peptide_004 [28] = target: T22, Peptide_004; test: peptide microarray, 5 ug/mL
Procedure: as §1, §2

Peptide_005 [29] = target: T23, Peptide_005; test: peptide microarray, 5 ug/mL
Procedure: as §1, §2

signal (blank-control = 1) (Peptide_045 [1]): 5.89
signal (blank-control = 1) (Peptide_095 [2]): 1.15
signal (blank-control = 1) (Peptide_084 [3]): 1.33
signal (blank-control = 1) (Peptide_015 [4]): 0.79
signal (blank-control = 1) (Peptide_014 [5]): 1.14
signal (blank-control = 1) (Peptide_021 [6]): 0.73
signal (blank-control = 1) (Peptide_085 [7]): 0.65
signal (blank-control = 1) (Peptide_020 [8]): 0.71
signal (blank-control = 1) (Peptide_013 [9]): 0.75
signal (blank-control = 1) (Peptide_086 [10]): 0.82
signal, fold of the average background level (Peptide_018 [11]): ~7 fold
signal, fold of the average background level (Peptide_012 [12]): ~7 fold
signal (blank-control = 1) (Peptide_051): 4.28
signal (blank-control = 1) (Peptide_021 [13]): 2.69
signal (blank-control = 1) (Peptide_085 [14]): 3.87
signal (blank-control = 1) (Peptide_018 [15]): 6.15
signal (blank-control = 1) (Peptide_045 [16]): 4.9
signal (blank-control = 1) (Peptide_094): 4.13
signal (blank-control = 1) (Peptide_095 [17]): 3.44
signal (blank-control = 1) (Peptide_022): 5.54
signal (blank-control = 1) (Peptide_020 [18]): 2.41
signal (blank-control = 1) (Peptide_013 [19]): 4.87
signal (blank-control = 1) (Peptide_024): 6.09
signal (blank-control = 1) (Peptide_086 [20]): 1.9
signal (blank-control = 1) (Peptide_019): 1.98
signal (blank-control = 1) (Peptide_093): 6.18
signal (blank-control = 1) (Peptide_084 [21]): 3.79
signal (blank-control = 1) (Peptide_012 [22]): 4.49
signal (blank-control = 1) (Peptide_092): 6.78
signal (blank-control = 1) (Peptide_015 [23]): 5.96
signal (blank-control = 1) (Peptide_014 [24]): 6.9
signal (blank-control = 1) (Peptide_023): 1.26
signal (blank-control = 1) (Peptide_025): 6.49
B1: monoclonal antibody B264 (antibody, mouse IgG1, kappa, V domains shown)
VH: QVQLQQSGAELARPGASVKMSCKASGYTFTSYTMHWVKQRPGQGLEWIGYINPTSDYTNYNQKFKDKATLTADKSSSTAYMQLSSLTSEDSAVYFCASEGGFLYYFDYWGQGTTLTVSS
VL: DVLMTQTPLSLPVSLGDQASISCRSSQSIVHSNGNTYLEWYLQKPGQSPKLLIYKVSNRFSGVPDRFSGSGSGTDFTLKISRVEAEDLGVYYCFQGSHVPYTFGGGTKLEIKR
notes: also called AB264; B264 (Trx1-mIgG1)

signal (blank-control = 1) (Peptide_004 [25]): 1
signal, fold of the average background level (Peptide_004 [26]): ~8 fold
signal, fold of the average background level (Peptide_005 [27]): ~8 fold
signal (blank-control = 1) (Peptide_004 [28]): 6.78
signal (blank-control = 1) (Peptide_005 [29]): 7.63
B2: monoclonal antibody B266-1 (antibody, human IgG1)
light: QIVLTQSPAIMSASPGEKVTMTCSASSRISYMYWYQQKPGTSPKRWIYDTSKLASGVPARFSGSGSGTSYSLTISTMEAEDAATYYCHQRSSYPTFGAGTKLELKSVAAPSVFIFPPSDEQLKSGTASVVCLLNNFYPREAKVQWKVDNALQSGNSQESVTEQDSKDSTYSLSSTLTLSKADYEKHKVYACEVTHQGLSSPVTKSFNRGEC
heavy: not shown
notes: B266 with the Fc part changed to human IgG1; also called B266-1 (Trx1-hIgG1); B266-1 (hTrx1-hIgG1)

Reference: US20240192215A1 (E AND S HEALTHCARE, published 2024)
